Test results taken from patent US12269859B2, “Synthetic immune receptors and methods of use thereof” (Angeles Therapeutics, Inc., priority 2016, dated 2025).

B1: 121416-D03 (protein)
chain: MALPVTALLLPLALLLHAARPLEQKLISEEDLGSGDRPDPAVYQLRDSKSSDKSVCLFTDFDSQTNVSQSKDSDVYITDKCVLDMRSMDFKSNSAVAWSNKSDFACANAFNNSIIPEDTFFPSPESSCDVKLVEKSFETDTNLNFQNLSVIGFRILLLKVAGFNLLMTLRLWSSSSRAKRSGSGVKQTLNFDLLKLAGDVESNPGPTSMALPVTALLLPLALLLHAARPDYIHVTQSPSSLSVSIGDRVTINCQTSQGVGSDLHWYQHKPGRAPKLLIHHASSVEDGVPSRFSGTGFHTSFNLTINDLQADDIGTYYCQVLQSFGRGSRLDTKGGGGSGGGGSGGGGSRAHLVQSGTAMKKPGASVRVSCQTSGYTFTAHILFWFRQAPGRGLEWVGWIKPQYGAVNFGGGFRDRVTLTRDVYREIAYMDIRGLKPDDTAVYYCARDRSYGDSSWALDAWGQGTTVVVSATRGKPIPNPLLGLDSTGSGEDLKNVFPPEVAVFEPSEAEISHTQKATLVCLATGFYPDHVELSWWVNGKEVHSGVCTDPQPLKEQPALNDSRYCLSSRLRVSATFWQNPRNHFRCQVQFYGLSENDEWTQDRAKPVTQIVSAEAWGRADCGFTSESYQQGVLSATILYEILLGKATLYAVLVSALVLMAMVKRKDSRGRAKRSGSGATNFSLLKQAGDVEENPGPSRGHMTEYKPTVRLATRDDVPRAVRTLAAAFADYPATRHTVDPDRHIERVTELQELFLTRVGLDIGKVWVADDGAAVAVWTTPESVEAGAVFAEIGPRMAELSGSRLAAQQQMEGLLAPHRPKEPAWFLATVGVSPDHQGKGLGSAVVLPGVEAAERAGVPAFLETSAPRNLPFYERLGFTVTADVEVPEGPRTWCMTRKPGA
modifications: Synthetic Immune Receptor (SIR)
B2: 040716-B03 (protein)
chain: MALPVTALLLPLALLLHAARPLEGKPIPNPLLGLDSTGSGEDLKNVFPPEVAVFEPSKAEIAHTQKATLVCLATGFYPDHVELSWWVNGKEVHSGVCTDPQPLKEQPALNDSRYCLSSRLRVSATFWQNPRNHFRCQVQFYGLSENDEWTQDRAKPVTQIVSAEAWGRADCGITSASYHQGVLSATILYEILLGKATLYAVLVSALVLMAMVKRKDSRGRAKRSGSGATNFSLLKQAGDVEENPGPTSMALPVTALLLPLALLLHAARPDEFDVQLVESGGGLVQPGGSLRLSCAASGSIGGLNAMAWYRQAPGKERELVAGIFGVGSTRYADSVKGRFTISRDNSKNTVYLQMNSLRPEDTAVYYCRMSSVTRGSSDYWGQGTLVTVSSLEGGGGSGGGGSGGGGSGSGGSGSGGSGSGGSGSGGSFEVQLVESGGSLVQPGGSLRLSCAASGFTFDDYAMSWVRQVPGKGLEWVSSINWSGTHTDYADSVKGRFTISRNNANNTLYLQMNSLKSEDTAVYYCAKNWRDAGTTWFEKSGSAGQGTQVTVSSTREQKLISEEDGSGIQNPDPAVYQLRDSKSSDKSVCLFTDFDSQTNVSQSKDSDVYITDKCVLDMRSMDFKSNSAVAWSNKSDFACANAFNNSIIPEDTFFPSSDVPCDVKLVEKSFETDTNLNFQNLSVIGFRILLLKVAGFNLLMTLRLWSSRAKRSGSGVKQTLNFDLLKLAGDVESNPGPSRGHMTEYKPTVRLATRDDVPRAVRTLAAAFADYPATRHTVDPDRHIERVTELQELFLTRVGLDIGKVWVADDGAAVAVWTTPESVEAGAVFAEIGPRMAELSGSRLAAQQQMEGLLAPHRPKEPAWFLATVGVSPDHQGKGLGSAVVLPGVEAAERAGVPAFLETSAPRNLPFYERLGFTVTADVEVPEGPRTWCMTRKPGA
modifications: Synthetic Immune Receptor (SIR)
B3: 121416-H05 (protein)
chain: MALPVTALLLPLALLLHAARPLEGKPIPNPLLGLDSTGSGEDLKNVFPPEVAVFEPSKAEIAHTQKATLVCLATGFYPDHVELSWWVNGKEVHSGVCTDPQPLKEQPALNDSRYCLSSRLRVSATFWQNPRNHFRCQVQFYGLSENDEWTQDRAKPVTQIVSAEAWGRADCGITSASYHQGVLSATILYEILLGKATLYAVLVSALVLMAMVKRKDSRGRAKRSGSGATNFSLLKQAGDVEENPGPTSMALPVTALLLPLALLLHAARPDYIHVTQSPSSLSVSIGDRVTINCQTSQGVGSDLHWYQHKPGRAPKLLIHHASSVEDGVPSRFSGTGFHTSFNLTINDLQADDIGTYYCQVLQSFGRGSRLDTKGGGGSGGGGSGGGGSRAHLVQSGTAMKKPGASVRVSCQTSGYTFTAHILFWFRQAPGRGLEWVGWIKPQYGAVNFGGGFRDRVTLTRDVYREIAYMDIRGLKPDDTAVYYCARDRSYGDSSWALDAWGQGTTVVVSATREQKLISEEDGSGIQNPDPAVYQLRDSKSSDKSVCLFTDFDSQTNVSQSKDSDVYITDKCVLDMRSMDFKSNSAVAWSNKSDFACANAFNNSIIPEDTFFPSSDVPCDVKLVEKSFETDTNLNFQNLSVIGFRILLLKVAGFNLLMTLRLWSSRAKRSGSGVKQTLNFDLLKLAGDVESNPGPSRGHMTEYKPTVRLATRDDVPRAVRTLAAAFADYPATRHTVDPDRHIERVTELQELFLTRVGLDIGKVWVADDGAAVAVWTTPESVEAGAVFAEIGPRMAELSGSRLAAQQQMEGLLAPHRPKEPAWFLATVGVSPDHQGKGLGSAVVLPGVEAAERAGVPAFLETSAPRNLPFYERLGFTVTADVEVPEGPRTWCMTRKPGA
modifications: Polynucleotide encoding a Synthetic Immune Receptor (SIR)
B4: 091616-X01 (protein)
chain: MALPVTALLLPLALLLHAARPELVLTQSPGTLSLSAGERATLSCRASQSVSSGSLAWYQQKPGQAPRLLIYGASTRATGIPDRFSGSGSGTDFTLTIGRLEPEDLAVYYCQQYGTSPYTFGQGTKLEILEEQKLISEEDLGSGEDLKNVFPPEVAVFEPSKAEIAHTQKATLVCLATGFYPDHVELSWWVNGKEVHSGVCTDPQPLKEQPALNDSRYCLSSRLRVSATFWQNPRNHFRCQVQFYGLSENDEWTQDRAKPVTQIVSAEAWGRADCGITSASYHQGVLSATILYEILLGKATLYAVLVSALVLMAMVKRKDSRGRAKRSGSGATNFSLLKQAGDVEENPGPTSMDWIWRILFLVGAATGAHSFELEQSGAEVKKPGSSVQVSCKASGGTFSMYGFNWVRQAPGHGLEWMGGIIPIFGTSNYAQKFRGRVTFTADQATSTAYMELTNLRSDDTAVYYCARDFGPDWEDGDSYDGSGRGFFDFWGQGTLVTVSSTREQKLISEEDGSGIQNPDPAVYQLRDSKSSDKSVCLFTDFDSQTNVSQSKDSDVYITDKCVLDMRSMDFKSNSAVAWSNKSDFACANAFNNSIIPEDTFFPSSDVPCDVKLVEKSFETDTNLNFQNLSVIGFRILLLKVAGFNLLMTLRLWSSRAKRSGSGVKQTLNFDLLKLAGDVESNPGPSRGHMTEYKPTVRLATRDDVPRAVRTLAAAFADYPATRHTVDPDRHIERVTELQELFLTRVGLDIGKVWVADDGAAVAVWTTPESVEAGAVFAEIGPRMAELSGSRLAAQQQMEGLLAPHRPKEPAWFLATVGVSPDHQGKGLGSAVVLPGVEAAERAGVPAFLETSAPRNLPFYERLGFTVTADVEVPEGPRTWCMTRKPGA
modifications: Synthetic Immune Receptor (SIR)
B5: 040716-H06 (protein)
chain: MALPVTALLLPLALLLHAARPDEFDVQLVESGGGLVQPGGSLRLSCAASGSIGGLNAMAWYRQAPGKERELVAGIFGVGSTRYADSVKGRFTISRDNSKNTVYLQMNSLRPEDTAVYYCRMSSVTRGSSDYWGQGTLVTVSSLEGGGGSGGGGSGGGGSGSGGSGSGGSGSGGSGSGGSFEVQLVESGGSLVQPGGSLRLSCAASGFTFDDYAMSWVRQVPGKGLEWVSSINWSGTHTDYADSVKGRFTISRNNANNTLYLQMNSLKSEDTAVYYCAKNWRDAGTTWFEKSGSAGQGTQVTVSSTREQKLISEEDGSGIQNPDPAVYQLRDSKSSDKSVCLFTDFDSQTNVSQSKDSDVYITDKCVLDMRSMDFKSNSAVAWSNKSDFACANAFNNSIIPEDTFFPSSDVPCDVKLVEKSFETDTNLNFQNLSVIGFRILLLKVAGFNLLMTLRLWSSRAKRSGSGVKQTLNFDLLKLAGDVESNPGPSRGHMTEYKPTVRLATRDDVPRAVRTLAAAFADYPATRHTVDPDRHIERVTELQELFLTRVGLDIGKVWVADDGAAVAVWTTPESVEAGAVFAEIGPRMAELSGSRLAAQQQMEGLLAPHRPKEPAWFLATVGVSPDHQGKGLGSAVVLPGVEAAERAGVPAFLETSAPRNLPFYERLGFTVTADVEVPEGPRTWCMTRKPGA
modifications: Polynucleotide encoding a Synthetic Immune Receptor (SIR)
B6: 091616-Y01 (protein)
chain: MALPVTALLLPLALLLHAARPDIQMTQSPSSLSASVGDTVTITCQANGYLNWYQQRRGKAPKLLIYDGSKLERGVPSRFSGRRWGQEYNLTINNLQPEDIATYFCQVYEFVVPGTRLDLKRTVAAPLEEQKLISEEDLGSGEDLKNVFPPEVAVFEPSKAEIAHTQKATLVCLATGFYPDHVELSWWVNGKEVHSGVCTDPQPLKEQPALNDSRYCLSSRLRVSATFWQNPRNHFRCQVQFYGLSENDEWTQDRAKPVTQIVSAEAWGRADCGITSASYHQGVLSATILYEILLGKATLYAVLVSALVLMAMVKRKDSRGRAKRSGSGATNFSLLKQAGDVEENPGPTSMDWIWRILFLVGAATGAHSFEQVQLLQSGAAVTKPGASVRVSCEASGYNIRDYFIHWWRQAPGQGLQWVGWINPKTGQPNNPRQFQGRVSLTRHASWDFDTFSFYMDLKALRSDDTAVYFCARQRSDYWDFDVWGSGTQVTVSSASTKGPTREQKLISEEDGSGIQNPDPAVYQLRDSKSSDKSVCLFTDFDSQTNVSQSKDSDVYITDKCVLDMRSMDFKSNSAVAWSNKSDFACANAFNNSIIPEDTFFPSSDVPCDVKLVEKSFETDTNLNFQNLSVIGFRILLLKVAGFNLLMTLRLWSSRAKRSGSGVKQTLNFDLLKLAGDVESNPGPSRGHMTEYKPTVRLATRDDVPRAVRTLAAAFADYPATRHTVDPDRHIERVTELQELFLTRVGLDIGKVWVADDGAAVAVWTTPESVEAGAVFAEIGPRMAELSGSRLAAQQQMEGLLAPHRPKEPAWFLATVGVSPDHQGKGLGSAVVLPGVEAAERAGVPAFLETSAPRNLPFYERLGFTVTADVEVPEGPRTWCMTRKPGA
modifications: Synthetic Immune Receptor (SIR)

Tested on: target antigen-expressing cell line
Assay: Jurkat NFAT-GFP assay, coculture with target cell lines expressing the respective target antigen (summary Table 10A)
Type: cell-based, human
Parameters: key: The signs +/−, +, 2+ etc. after the name of the cell lines indicate the relative degree of positivity on the Jurkat-NFAT-GFP assay as measured by the % GFP positive cells; +: relative degree of positivity on the Jurkat-NFAT-GFP assay as measured by the % GFP positive cells; 2+: relative degree of positivity on the Jurkat-NFAT-GFP assay as measured by the % GFP positive cells
In short: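 Coculture of SIR-bearing Jurkat NFAT-GFP reporters with target cells, ~1:2 E:T, ~4–18 h. FACS quantified % GFP+ cells, ranked semi-quantitatively against parental Jurkat-NFAT-GFP.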

[1] = coculture with TF228.1.1.6 cells

Row | Molecule | NFAT-GFP ASSAY Positive Cell lines (coculture with HL2-3 cells) | NFAT-GFP ASSAY Positive Cell lines [1] | NFAT-GFP ASSAY Positive Cell lines (coculture with A431 cells) | NFAT-GFP ASSAY Positive Cell lines (coculture with MCF7 cells) | NFAT-GFP ASSAY Positive Cell lines (coculture with SKBR3 cells)
1 | B1 | HL2-3 (+/−), | TF228.1.1.6 (+) | – | – | –
2 | B2 | – | – | (+), A431 (+) | MCF7 (+/−), SKBR3 | (+), A431 (+)
3 | B3 | HL2-3 (+/−), | TF228.1.1.6 (+/−) | – | – | –
4 | B4 | HL2-3 (+/−) | TF228.1.1.6 (+), | – | – | –
5 | B5 | – | – | – | MCF7 (+), SKBR3 (+) | MCF7 (+), SKBR3 (+)
6 | B6 | HL2-3 (+/−) | – | – | – | –
